This is an account of results in article doi:10.1101/2020.07.17.208231, “UMP inhibition and sequential firing in aspartate transcarbamoylase open ways to regulate plant growth” (bioRxiv, 2020).

As a reminder, the stoichiometry N is the number of molecules, sites or subunits per partner or assembly.

Data set [1] deals with the molecule itself. Description: SEC-MALS; 400 ul purified protein at 1.4 mg/ml on Superdex 200 10/300 in GF buffer (20 mM Tris pH 7.0, 0.1 M NaCl, 2% glycerol, 0.2 mM TCEP); also the UMP-freed sample and the sample pre-incubated with PALA (Supplementary Fig. 4). (SEC sorts molecules by how far they enter the pores of the column.)
Data set [2] concerns the molecule itself. Description: crystal structure; sitting-drop vapor diffusion at room temperature, PEG 3350 conditions; with UMP, apo, with PALA, with PALA and CP, with CP; molecular replacement with PDB 5G1O.

B1: Arabidopsis aspartate transcarbamoylase, construct spanning aa 82-390 (atATC) (enzyme, Arabidopsis thaliana, UniProt P49077 82-390, looked up)
chain: FELSDVIEGKQFDREMLSAIFDVAREMEKIEKSSSQSEILKGYLMATLFYEPSTRTRLSFESAMKRLGGEVLTTENAREFSSAAKGETLEDTIRTVEGYSDIIVMRHFESGAARKAAATANIPVINAGDGPGEHPTQALLDVYTIQSEIGKLDGISVALVGDLANGRTVRSLAYLLAKFKDVKIYFVSPEIVKMKDDIKDYLTSSGVEWEESSDLMEVASKCDVVYQTRIQRERFGERLDLYEAARGKYIVDKDLLGVMQKKAIIMHPLPRLDEITADVDADPRAAYFRQAKNGLFIRMALLKLLLVGW
notes: aspartate transcarbamoylase (ATC; pyrB; At3g20330), Arabidopsis thaliana, aa 82-390 of the 390 aa precursor, i.e. without the N-terminal chloroplast transit peptide; Homotrimer; As purified it carries UMP captured during expression; a UMP-freed form was also made; also called WT; recombinant ATC; source: E. coli BLR(DE3)-pLysS, purified (Ni-sepharose, size-exclusion chromatography); not shown: …
Regarding B1, the “stoichiometry N” value in data set [1] was 3.

B2: atATC mutant F161A (enzyme, Arabidopsis thaliana, UniProt P49077 82-390, looked up)
chain: FELSDVIEGKQFDREMLSAIFDVAREMEKIEKSSSQSEILKGYLMATLFYEPSTRTRLSFESAMKRLGGEVLTTENAREASSAAKGETLEDTIRTVEGYSDIIVMRHFESGAARKAAATANIPVINAGDGPGEHPTQALLDVYTIQSEIGKLDGISVALVGDLANGRTVRSLAYLLAKFKDVKIYFVSPEIVKMKDDIKDYLTSSGVEWEESSDLMEVASKCDVVYQTRIQRERFGERLDLYEAARGKYIVDKDLLGVMQKKAIIMHPLPRLDEITADVDADPRAAYFRQAKNGLFIRMALLKLLLVGW
notes: aspartate transcarbamoylase (ATC; pyrB; At3g20330), Arabidopsis thaliana, aa 82-390 of the 390 aa precursor, with F161A in the CP-loop; Same construct as m1 with the point mutation F161A, made by site-directed mutagenesis; also called atATC-F161A; source: E. coli BLR(DE3)-pLysS, purified (Ni-sepharose, size-exclusion chromatography); not shown: 2.6 kDa fusion tag (from a modified pET28a plasmid)
In the case of B2, in data set [2], the binding result is “binds”.
